“Also recorded” adds a separate entry of the source. Where a SMILES comes first, the peptide text is derived from it. Where no end group is shown, it is not given here.
Assays:
[1] = system: aortic allograft (plaque growth); test: Mouse aortic allograft transplant model
Protocol: To assess potential anti-inflammatory actions of individual serpin-derived peptides, peptide treatment was tested in mice after aortic allograft transplant at 4 weeks.
Ninety three mice had aortic allograft transplantation; 56 had PAI-1−/− (C57BL/6 background) donor to BALB/c (PAI-1+/+) recipient; and 37 had C57BL/6 wild type (PAI-1+/+) to BALB/c (PAI-1+/+) recipient. […] Due to the large number of surgeries required, both the PAI-1−/− and the WT mouse implants were utilized. The PAI-1−/− mice also allowed analysis of serpin response in a mouse transplant lacking a key thrombolysis regulating serpin, PAI-1. A 0.3 cm aortic segment isolated from the donor mouse was transplanted into the infra-renal aorta of recipient mice for aortic allograft studies (Table 1). The aortic transplant was anastomosed end-to-end using Sharpoint 11/0 nylon sutures (Surgical Specialties Corporation, Reiding, Mass., USA) under general anesthetic (6.5 mg/100 g body weight Somnotrol, MTC Pharmaceuticals, Cambridge, ON, Canada) given by intramuscular (i.m.) injection. WT C57BL/6 mice were purchased directly from Jackson Laboratories (Bar Harbor, Me., U.S.A.) and PAI-1−/− mice were bred in-house using mice supplied by Jackson Laboratories prior to surgery. Mice were followed for 4 weeks after transplant. […] Serpins or serpin-derived peptides were infused by intravenous (i.v.) tail vein injection immediately after transplant surgery, once aortic pulsation was again visible. At 4 weeks after aortic transplant, mice were euthanized with 0.05 ml euthanyl (Bimeda—MTC Animal Health Ltd., Cambridge, ON, Canada) by i.m. injection.
Donor aortic transplant implants and adjacent recipient aorta (0.5-0.6 cm long) were cut into two 0.25-0.3 cm pieces, fixed, paraffin embedded, and cut into 5 μm sections (two per aortic section, providing 4 sections for analysis of each transplanted mouse aorta) and stained with Haematoxylin and eosin for morphometric analysis. Areas of plaque, lumen and internal elastic lamina were measured by means of the Olympus application program using a Sony Power HAD3CCD color video camera attached to the microscope and calibrated to the microscope objective. The mean total cross sectional area of the intima, using sections with the largest detectable plaque area, was calculated for each aortic specimen. Numbers of invading mononuclear cells were counted per high powered field area at three sites in the intimal, medial and adventitial layers and the mean count for each arterial layer and specimen calculated.

[2] = system: PMA activated THP-1 monocytes; test: Membrane fluidity cell activation assay; type: cell-based, human; conditions: peptides 500, 1000, 1500 ng/ml, Serp-1, NSP 500 ng/mL
Protocol: Cellular membrane fluidity is measured by pyrene dimer formation in the lipid bilayer and is used as a non-specific measure of cell activation (Zalai C V, et al. (2001) J Am Coll Cardiol 38: 1340-1347). Increases in THP-1 human monocyte membrane fluidity, after PMA activation, correlate with changes in cell activation, adhesion and motility. […] Serpin-derived peptide treatments paralleled in vivo activity with the one exception being the S-4 peptide. […] All serpin-derived peptides were tested at three doses 500, 1000 and 1500 ng/ml.
One million >95% viable THP-1, Jurkat T, or 5×10^5 HUVEC cells were labeled with BPP (0.8 μM) for studying core membrane fluidity, three hours prior to cell activation as previously described (Viswanathan K, et al. (2009) B. J Leukoc Biol 85: 418-426; Viswanathan K, et al. (2006) Thromb Haemost 95: 499-510; Zalai C V, et al. (2001) J Am Coll Cardiol 38: 1340-1347; Viswanathan K, et al. (2012) PLoS One 7: e44694; and Christov A, et al. (2001) Lasers Surg Med 28: 414-426). […] At the end of one hour, cells were washed to remove excess fluorescent probe and monomer, excimer fluorescence emission intensities were measured at 390 nm and 485 nm, respectively, during excitation at 320 nm using a fluorescent dual wavelength reader (Fluoroskan, Thermolab systems, Oy, USA). […]

Jurkat T cells = test: RT-PCR signaling pathway gene expression analysis, Jurkat T cells; type: cell-based, human; conditions: vs saline
Description: (§1) Shared effects of Serp-1 and S-1, one of the active Serp-1 RCL peptide inhibitors for plaque growth, on transcription of representative genes in signaling pathways were studied in human Jurkat T cell (FIG. 5A and FIG. 5B) and THP-1 monocytes (FIGS. […]). […] Serp-1 and the Serp-1 peptides (serpin-derived peptides) S-1 and S-5 were compared to saline treated controls. Genes with two-fold change in expression with P-value less than 0.05 by Student's t-test were considered significant.
(§2) To further examine potential mechanisms of inhibitory activity for individual serpin peptides, THP-1 monocyte and Jurkat T cells in culture were treated with individual serpins or serpin-derived peptides with proven inhibitory activity for plaque growth in vivo (Viswanathan K, et al. (2009) B. J Leukoc Biol 85: 418-426; Viswanathan K, et al. (2006) Thromb Haemost 95: 499-510; Chen H, et al. (2013) Antimicrob Agents Chemother 57: 4114-4127; and Viswanathan K, et al. (2012) PLoS One 7: e44694). RT-PCR signaling pathway gene arrays (Sigma-Aldrich, St. Louis, Mo., USA) were analyzed in triplicate per cell type using predicted peptide or serpin treatment.

THP-1 monocytes = test: RT-PCR signaling pathway gene expression analysis, THP-1 monocytes; type: cell-based, human; conditions: THP-1 cells, vs saline
Description: as §1, §2

[3] = biological target: T1, urokinase-type plasminogen activator (uPA) (Homo sapiens, UniProt P00749); test: uPA chromogenic enzyme activity assay; type: biochemical; conditions: chromogenic protease activity assay
T1 construct: purchased Sigma U0633
Protocol: Activity of purified NSP and Serp-1 was measured as inhibitory activity for uPA, using a chromogenic assay (Assaypro, St. Louis, Mo., USA) as previously described (for example, see, Dai E, et al. (2003) J Biol Chem 278: 18563-18572). Serp-1, NSP or individual peptides were mixed with enzyme solution at room temperature for one hour, per the manufacturers protocol (American Diagnostics). After incubation, 10 μl of chromogenic substrate was added. The 96-well plate was covered and placed in a wet box for overnight incubation at 37° C. After a 17 hr incubation, the plate was read at 405 nm by microplate reader (Bio-Tek Instruments). Reaction buffer (100 mM NaCl, 2 mM CaCl2, 100 mM Tris-HCl, pH 7.5, Triton X-100, 0.005%) was used for dilutions of proteases, Serp-1, NSP, or serpin peptides and chromogenic substrate. Residual protease activity was calculated with comparison to control samples without active serpin or peptides.
Serpin inhibition activity of peptides was also assessed using assays for uPA, tPA, plamin, PAI-1 and anti-thrombin III (ATIII). […] Peptide inhibition of ATIII (ThermoFisher Scientific, Grand Island, N.Y.) was measured as a reduction in its thrombin activity. uPA (Sigma, U0633) activity towards pefachrome uPA (Enzyme Research Laboratories, South Bend, Ind., P082-33) was used for assaying peptide inhibition. […]

[4] = in vivo; cited from earlier work
lethal viral sepsis = conditions: in vivo; cited from earlier work
[5] = patients with acute unstable angina after stent implantation; cited from earlier work

CC(C)C[C@H](NC(=O)[C@H](C)NC(=O)[C@H](CC(N)=O)NC(=O)[C@@H](N)CCCNC(=N)N)C(=O)O [S-3, RNAL] (H-RNAL-OH; N-terminus and C-terminus assumed)
Adverse Events (number) ([1]; 15 μg/mouse): 0

EVNEEGSEAAAVSGM [S-6]
Adverse Events (kind) ([1]; 1.5 μg/mouse): thrombosis
Adverse Events (number) ([1]; 1.5 μg/mouse): 1
mortality (early thrombosis at site of aortic allograft transplant) ([1]; 15 μg dose): 100%
Adverse Events (kind) ([1]; 15 μg/mouse): thromboses
Adverse Events (number) ([1]; 15 μg/mouse): 6

GTTASSDTAITLIPR [S-7]
Adverse Events (number) ([1]; 15 μg/mouse): 0

IAISRM [S-4, IAISRM]
Adverse Events (number) ([1]; 15 μg/mouse): 0

IPRNAL [S-1, IPRNAL]
Adverse Events (number) ([1]; 1.5 μg/mouse): 0
Adverse Events (kind) ([1]; 15 μg/mouse): thrombosis; also recorded: fighting injury
Adverse Events (number) ([1]; 15 μg/mouse): 1
Adverse Events (number) ([1]; 150 μg/mouse): 0

ISRMAV [S-2, ISRMAV]
Adverse Events (kind) ([1]; 15 μg/mouse): thrombosis
Adverse Events (number) ([1]; 15 μg/mouse): 1

MAVLYPQVIVDHPFFFLIRNR [S-8]
Adverse Events (number) ([1]; 15 μg/mouse): 0

TAIVANKPF [S-5]
Adverse Events (number) ([1]; 1.5 μg/mouse): 0
Adverse Events (number) ([1]; 15 μg/mouse): 0
Adverse Events (number) ([1]; 150 μg/mouse): 0

B1: Serp-1: secreted myxomavirus-derived protein (serpin) that binds and inhibits uPA, tPA, plasmin and factor X (protein)
chain: RDIGLWTFRYVYNESDNVVFSPYGLTSALSVLRIAAGGNTKREIDVPESVVEDSDAFLALRELFVDASVPLRPEFTAEFSSRFNTSVQRVTFNSENVKDVINSYVKDKTGGDVPRVLDASLDRDTKMLLLSSVRMKTSWRHVFDPSFTTDQPFYSGNVTYKVRMMNKIDTLKTETFTLRNVGYSVTELPYKRRQTAMLLVVPDDLGEIVRALDLSLVRFWIRNMRKDVCQVVMPKFSVESVLDLRDALQRLGVRDAFDPSRADFGQASPSNDLYVTKVLQTSKIEADERGTTASSDTAITLIPRNALTAIVANKPFMFLIYHKPTTTVLFMGTITKGEKVIYDTEGRDDVVSSV
IEx/IMon ratio (membrane fluidity) [2]: consistently reduced membrane fluidity significantly
BCL-2 gene expression (Jurkat T cells): had no effect
TCF7 gene expression (Jurkat T cells): inhibited
CCL 20 gene expression (Jurkat T cells; data not shown): had no effect
CCND-1 gene expression (Jurkat T cells; data not shown): had no effect
MMP7 gene expression (Jurkat T cells; data not shown): had no effect
interleukin-8 (IL-8) gene expression (Jurkat T cells; data not shown): had no effect
BRCA1 gene expression (THP-1 monocytes): induced
Selectin P ligand (CD162) gene expression (THP-1 monocytes): induced
cyclin-dependent kinase inhibitor 1B (CDKN1; p27) gene expression (THP-1 monocytes): induced
glycogen synthase (GYS) gene expression (THP-1 monocytes): induced
inhibition of uPA activity [3]: inhibited; also recorded: dose dependent with greater inhibition at the higher concentration (500 ng)
plasma half-life [4]: 20 to 60 min
survival in mouse models of lethal viral sepsis (lethal viral sepsis): improved survival
early markers of myocardial damage [5]: reduced early markers of myocardial damage

B2: NSP: mammalian serpin, neuroserpin, that binds tPA and uPA (protein)
chain: TGATFPEEAIADLSVNMYNRLRATGEDENILFSPLSIALAMGMMELGAQGSTQKEIRHSMGYDSLKNGEEFSFLKEFSNMVTAKESQYVMKIANSLFVQNGFHVNEEFLQMMKKYFNAAVNHVDFSQNVAVANYINKWVENNTNNLVKDLVSPRDFDAATYLALINAVYFKGNWKSQFRPENTRTFSFTKDDESEVQIPMMYQQGEFYYGEFSDGSNEAGGIYQVLEIPYEGDEISMMLVLSRQEVPLATLEPLVKAQLVEEWANSVKKQKVEVYLPRFTVEQEIDLKDVLKALGITEIFIKDANLTGLSDNKEIFLSKAIHKSFLEVNEEGSEAAAVSGMIAISRMAVLYPQVIVDHPFFFLIRNRRTGTILFMGRVMHPETMNTSGHDFEEL
IEx/IMon ratio (membrane fluidity) [2]: consistently reduced membrane fluidity significantly
inhibition of uPA activity [3]: inhibited
Adverse Events (kind) ([1]; 15 μg/mouse): thrombosis
Adverse Events (number) ([1]; 15 μg/mouse): 1
